Reference: patent publication US20210132079A1 (UCB, published 2021)

Key:
[1] = target: T1, human TNFα in complex with compound (1) (human, UniProt P01375 77-233); experiment: SPR BIAcore, compound-bound against apo TNFα
T1 construct: also called human TNFα + compound (1); TNFα-compound (1) complex

[2] = target: T2, human TNFα in complex with compound (2) (human, UniProt P01375 77-233); experiment: SPR BIAcore, compound-bound against apo TNFα
T2 construct: also called human TNFα + compound (2)
T2 sequence (P01375 77-233 limits assumed, one chain of several): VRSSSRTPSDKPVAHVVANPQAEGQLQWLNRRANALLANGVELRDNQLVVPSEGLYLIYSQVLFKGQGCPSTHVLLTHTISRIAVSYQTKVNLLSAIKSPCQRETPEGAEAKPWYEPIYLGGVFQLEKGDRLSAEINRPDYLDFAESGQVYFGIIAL

T1 sequence (P01375 77-233 limits assumed, one chain of several): as above

B1: CA185_01979 mouse IgG1 (mIgG1, kappa) (antibody, V domains shown)
VH: EVHLVESGPGLVKPSQSLSLTCSVTGYSITNSYWDWIRKFPGNKMEWMGYINYSGSTGYNPSLKSRISISRDTSNNQFFLQLNSITTEDTATYYCARGTYGYNAYHFDYWGRGVMVTVSS
VL: DIQMTQSPASLSASLEEIVTITCQASQDIGNWLSWYQQKPGKSPHLLIYGTTSLADGVPSRFSGSRSGTQYSLKISGLQVADIGIYVCLQAYSTPFTFGSGTKLEIKR
notes: also called CA185_01979.0; VR0001842
- log selective binding against apo human TNFα [1]: > 2 log
- log selective binding against apo human TNFα [2]: > 2 log
